From article PMC2614274

Biological target: T1, DNA polymerase III alpha subunit (PolIIIα), exonuclease-deficient (Thermus aquaticus, UniProt Q9XDH5 1-1220, D20N;D212N)
T1 sequence: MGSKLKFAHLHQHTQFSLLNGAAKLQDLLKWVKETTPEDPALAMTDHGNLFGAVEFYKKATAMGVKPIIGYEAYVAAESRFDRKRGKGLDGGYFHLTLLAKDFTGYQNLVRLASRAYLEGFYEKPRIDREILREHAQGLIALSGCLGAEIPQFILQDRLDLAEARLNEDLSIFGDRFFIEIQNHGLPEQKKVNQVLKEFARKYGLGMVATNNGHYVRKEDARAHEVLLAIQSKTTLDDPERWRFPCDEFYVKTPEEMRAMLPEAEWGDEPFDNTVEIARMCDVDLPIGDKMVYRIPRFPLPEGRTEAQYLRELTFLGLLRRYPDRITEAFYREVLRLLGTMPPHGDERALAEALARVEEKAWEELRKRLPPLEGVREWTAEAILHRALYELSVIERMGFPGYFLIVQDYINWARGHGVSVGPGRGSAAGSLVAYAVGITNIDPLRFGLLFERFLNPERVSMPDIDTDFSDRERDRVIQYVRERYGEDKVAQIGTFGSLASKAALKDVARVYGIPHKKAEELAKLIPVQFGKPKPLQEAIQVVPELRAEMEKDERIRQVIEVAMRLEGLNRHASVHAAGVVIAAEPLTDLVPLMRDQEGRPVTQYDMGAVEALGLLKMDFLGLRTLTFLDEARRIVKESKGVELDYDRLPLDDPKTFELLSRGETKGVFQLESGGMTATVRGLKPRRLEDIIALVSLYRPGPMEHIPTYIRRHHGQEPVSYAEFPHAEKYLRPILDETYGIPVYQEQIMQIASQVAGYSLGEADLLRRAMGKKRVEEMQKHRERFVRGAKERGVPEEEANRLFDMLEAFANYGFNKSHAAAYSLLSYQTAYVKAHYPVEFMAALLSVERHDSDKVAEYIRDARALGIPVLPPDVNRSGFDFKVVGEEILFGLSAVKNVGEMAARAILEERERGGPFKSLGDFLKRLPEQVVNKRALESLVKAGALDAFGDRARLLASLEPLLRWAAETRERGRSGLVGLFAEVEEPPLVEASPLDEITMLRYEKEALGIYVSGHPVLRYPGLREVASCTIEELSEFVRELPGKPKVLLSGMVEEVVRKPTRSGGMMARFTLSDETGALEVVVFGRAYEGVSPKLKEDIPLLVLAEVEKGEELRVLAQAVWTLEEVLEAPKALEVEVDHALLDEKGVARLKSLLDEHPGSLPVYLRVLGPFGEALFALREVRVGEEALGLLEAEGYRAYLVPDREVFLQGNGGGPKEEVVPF
Experiment: X-ray crystallography

B1: primer-template DNA, ddC-terminated primer (dsDNA)
DNA 1: CGAAACGACGGCCAGTGCCAC
DNA 2: TTTTTTGTGGCACTGGCCGTCGTTTCG
modifications: 2',3'-dideoxycytidine at primer 3' end (incorporated in situ by the polymerase)
Question: Does B1 bind?
Answer: binds
